The values that follow come from patent CN116023497A (WEST CHINA HOSPITAL SICHUAN UNIV, dated 2023).

The target in test [1] is T1, DDR1胞外段(DDR1 ECD), His标签 (human).
T1 chain: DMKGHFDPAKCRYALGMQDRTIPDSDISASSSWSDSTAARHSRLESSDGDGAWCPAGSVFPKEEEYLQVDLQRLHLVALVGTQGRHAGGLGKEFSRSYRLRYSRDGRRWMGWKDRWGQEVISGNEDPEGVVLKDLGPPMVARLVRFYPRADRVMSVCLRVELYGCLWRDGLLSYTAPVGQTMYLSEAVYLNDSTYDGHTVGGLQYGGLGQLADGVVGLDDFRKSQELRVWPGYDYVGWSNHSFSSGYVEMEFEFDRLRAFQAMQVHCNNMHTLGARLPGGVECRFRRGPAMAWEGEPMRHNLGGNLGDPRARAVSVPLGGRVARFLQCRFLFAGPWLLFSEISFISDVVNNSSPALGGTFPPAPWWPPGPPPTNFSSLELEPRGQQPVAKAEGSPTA
Briefly: SPR (Biacore), 1:1 model; His-tagged DDR1 ECD on NTA chip, Tytug as analyte. (In general: SPR reads the build-up and loss of mass on a sensor chip optically.)

For test [2], the target named is T1, DDR1胞外段(DDR1 ECD), His标签. Briefly: SPR (Biacore), 1:1 model; His-tagged DDR1 ECD on NTA chip, Tytug as analyte; exponent printed without minus sign, kd/ka gives 2.26e-10.
The target in test [3] is T2, DDR2胞外段 (UniProt Q16832 22-399).
T2 construct: range 22-399; also called DDR2 ECD
T2 sequence (looked up): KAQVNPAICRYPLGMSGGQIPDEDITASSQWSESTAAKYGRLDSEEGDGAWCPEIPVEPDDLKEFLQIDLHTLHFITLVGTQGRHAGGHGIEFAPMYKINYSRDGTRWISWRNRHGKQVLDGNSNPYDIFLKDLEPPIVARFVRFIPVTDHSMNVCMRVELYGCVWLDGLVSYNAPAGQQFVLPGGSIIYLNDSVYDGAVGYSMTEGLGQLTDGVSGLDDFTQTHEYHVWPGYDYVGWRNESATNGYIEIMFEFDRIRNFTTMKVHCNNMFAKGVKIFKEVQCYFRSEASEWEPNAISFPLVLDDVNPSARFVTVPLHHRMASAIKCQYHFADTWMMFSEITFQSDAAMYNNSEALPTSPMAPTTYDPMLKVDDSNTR
Briefly: ELISA, coated DDR2 ECD, dilution series of Tytug. Background: In an ELISA, binding on a coated surface is turned into a signal by an enzyme label.

B1: Tytug抗体 (antibody, IgG1, V domains shown)
VH: QVQLQQPGAELVRPGSSVRLSCKASGYSFTSYWMNWVKQRPGQGLEWIGMIHPSDSKTRLDQKFKDKATLTVDKSSSTAYMQLSSPTSEDSAVYYCAREGTYYYAMDFWGQGTSVTVSS
VL: DVLMTQTPLSLPVSLGDQASISCRSSQTIVHSNGNTYLEWYLQKPGQSPKLLIYKVSNRFSGVPDRFSGSGSGTDFTLKISRVEAEDLGVYYCFQGSHDPYTFGGGTKLEIK
notes: Mouse hybridoma monoclonal antibody; also called T4-E11-F10; T4-E11-F10(Tytug)
For B1, in test [1], the koff – broadly, the first-order rate constant of dissociation – is 4.66e-05 s⁻¹ and the kon – broadly, the rate constant with which the complex forms – came to 207000 M⁻¹ s⁻¹. Further, binding in test [2] was characterised by a dissociation constant (Kd) of 0.226 nM. Also, in test [3], the binding result is “no binding”.
